# Reference: patent US8673289B2, “Attenuated uracil auxotroph of an apicomplexan and use thereof” (priority 2007, dated 2014)
# Where two headings read alike, the source gives them in different places.
# Assays:
# [1] = test system: cps1 and cps2 mutants; assay: pyrimidine dependence of cps1 and cps2 replication and plaque formation; assay type: cell-based, Toxoplasma gondii; conditions: relatively low (thymine, thymidine: moderate) concentrations in medium
# Text: However, all of these mutants are somewhat “leaky” in that there was not an absolute growth (replication) dependence on uracil addition to the growth medium for replication. Each of these mutants grows at a moderate (½ of normal) growth rate for the first 2 days following infection of a host cell producing vacuoles that contained 16 to 32 parasites by 3 days post infection. In contrast, RH parasites are lysed out of their primary vacuoles at this time (3 days, >64 parasites). However, the cps mutants slow after 3 days and many parasites never (about ⅓) break out of their primary vacuole. If the primary vacuole breaks, a few parasites can be detected at the site of infection but the infection site always involves a small zone of infection that never forms a visible plaque in a standard 7 day plaque assay. To quantitate growth of these mutants, HFF flasks were inoculated with […] or cps2 parasites (about a multiplicity of infection (MOI) of 1 parasite per 20 HFF cells). After 2 hours of attachment and invasion (all of these mutants have normal attachment and invasion phenotypes as scored by counting percent entered parasites into host cells as a function of time post-inoculation), different concentrations of different pyrimidine compound was added to parallel infected HFF flasks. As a function of time post pyrimidine addition (t=0 hour) the number of parasites per vacuole was scored for 50 vacuoles as described by Fox et al. ((1999) supra). The number of parasite doublings was calculated based on 1 parasite entering each primary vacuole. Thus, 1 doubling=2 parasites per vacuole, 3 doublings=8 parasites per vacuole, and 5 doublings=32 parasites per vacuole. The pyrimidine dependence of cps1 and cps2 replication (doublings of parasites in the vacuole) was plotted graphically. […] The response to thymine and thymidine was additionally informative about the cause of the growth defect in cps1 and cps2. […] This is believed to be caused by the putative defect in the cps1 and cps2 mutants which is a reduced “pool” size of UMP. If UMP pools (ultimately used for RNA and DNA synthesis) are lowered it follows that a resulting decrease in TMP pools is expected since UMP is the precursor of TMP in T. gondii and all other apicomplexan parasites which normally lack TK activity. However, since cps1 and cps2 now express a TK activity carried into the parasite by the p53KOX3-1R plasmid, exemplified by sensitivity of these mutants to ganciclovir (specific to HSV TK), feeding parasites either thymine or thymidine is expected to increase TMP pools. Thus, it appears that moderate levels of thymine or thymidine partially rescue growth of cps1 and cps2 by restoring TMP pools. […] Since the parasite has no mechanism to convert TMP back to UMP there is still a defect in the UMP pool in cps1 and cps2 even with added thymine or thymidine and rescue is never complete. The ability of cps1 and cps2 mutants to form plaques on HFF monolayers in the standard 7 day assay paralleled the pyrimidine dependence of parasite replication in vacuoles.
# The cps1 and cps2 mutants were inoculated intraperitoneally (i.p.) into balb/c mice to measure parasite virulence compared to virulent RH parasites. Both mutant cps1 and cps2 had equal virulence as RH parasites in balb/c mice (Jackson Labs), killing all mice within 10 days of i.p. inoculation (group size was four mice per parasite strain). Only 100 parasites (˜50 PFU) of each parasite strain was needed to kill all mice in each group. This pattern of virulence can be understood by re-examining the pyrimidine dependence of cps1 and cps2 growth. Uridine is believed to be the pyrimidine responsible for virulence of cps1 and cps2 in mice. Only 5 μM uridine completely rescues normal plaque size of cps1 and cps2 in vitro. Plasma concentrations of uridine in mice are approximately 5 to 10 μM.
# [2] = test system: cps1-1 and cps2-1; assay: pyrimidine rescue of cps1-1 and cps2-1 replication and plaque formation; assay type: cell-based, Toxoplasma gondii; conditions: 36-hour replication assay, HFF
# Description: No pyrimidine compound at less than 25 μM could rescue plaque formation of cps1-1 or cps2-1. […] Uridine was quite poor at rescue of plaque formation in cps1-1 and cps2-1.
# A more detailed growth response to pyrimidine, measured as parasite replications (doublings) was performed for cps1-1 and cps2-1 and compared to the results previously obtained for […]. […] Uridine rescue was poor, with a slow restoration of growth at very high amounts, >400 μM. Deoxyuridine rescue was significant, but again, full growth rate was not restored at any concentration of deoxyuridine. Rescue with uracil was robust, but only in a limited range of concentration. Full restoration of growth rate in cps1-1 and cps2-1 was possible only with uracil added between 200 and 400 μM. […] This phenotype can only be observed in T. gondii pyrimidine auxotroph mutants, not in wild-type parasites with intact de novo pyrimidine synthesis pathways.
# The pyrimidine growth dependence of mutant cps1-1 on the pyrimidine salvage pathway was further documented in thymidine interference experiments. Mutant cps1-1 plaques well in 250 μM uracil or deoxyuridine, but not in 1000 μM thymidine. Since thymidine at 1000 μM is known to inhibit approximately 90% of the parasite nucleoside phosphorylase activity specific for cleavage of deoxyuridine (Iltzsch, (1993) J. Euk. Micro. 40:24-28), growth of cps1-1 was tested in combinations of 1000 μM thymidine and 250 μM uracil or 250 μM deoxyuridine. All pyrimidine salvage in T. gondii must pass through uracil and UPRT conversion of uracil to UMP. In contrast, thymidine has no effect on UPRT activity. Thus, if growth of cps1-1 were dependent on deoxyuridine supplementation then replication in this condition may be inhibited by co-supplementing with 1000 μM thymidine. […] Thus, when cps1-1 is grown in deoxyuridine the parasite strictly requires nucleoside phosphorylase activity to cleave deoxyuridine for growth. […] Thus, cps1-1 and cps2-1 rely strictly on pyrimidine salvage enzymes for growth and further, the HFF host cell in vitro cannot supply sufficient pyrimidines for growth of cps1-1 or cps2-1. […] Such potential inhibitors can only be identified using a pyrimidine auxotroph such as provided in the instant invention.
# To assess reversion, 10^6 to 10^7 cps1-1 or cps2-1 parasites were periodically inoculated into HFF flasks supplemented with 5 μM uridine. This concentration of uridine is sufficient to rescue the parent strains (cps1 and cps2) of cps1-1 and cps2-1.
# [3] = test system: E. coli CPS; conditions: cited from earlier work
molecule,measurement,setting,value
Nc1ccn([C@H]2C[C@H](O)[C@@H](CO)O2)c(=O)n1 [deoxycytidine],rescue of growth rate / replication of cps1 and cps2,[1],completely rescued
same,rescue of replication (doublings) of cps1-1 and cps2-1,[2],remained as a single non-replicated parasite
"E. c. G359F: E. coli CPS with ammonia tunnel wall mutation G359F (protein, UniProt P0A6F1 1-382; P00968 2-1073, looked up, variant G359F, mutation in small subunit) Carbamoyl phosphate synthase … 1: MIKSALLVLEDGTQFHGRAIGATGSAVGEVVFNTSMTGYQEILTDPSYSRQIVTLTYPHIGNVGTNDADEESSQVHAQGLVIRDLPLIASNFRNTEDLSSYLKRHNIVAIADIDTRKLTRLLREKGAQNGCIIAGDNPDAALALEKARAFPGLNGMDLAKEVTTAEAYSWTQGSWTLTGGLPEAKKEDELPFHVVAYDFGAKRNILRMLVDRGCRLTIVPAQTSAEDVLKMNPDGIFLSNGPGDPAPCDYAITAIQKFLETDIPVFGICLGHQLLALASGAKTVKMKFGHHGGNHPVKDVEKNVVMITAQNHGFAVDEATLPANLRVTHKSLFDGTLQGIHRTDKPAFSFQGHPEASPFPHDAAPLFDHFIELIEQYRKTAK Carbamoyl phosphate synthase … 2: PKRTDIKSILILGAGPIVIGQACEFDYSGAQACKALREEGYRVILVNSNPATIMTDPEMADATYIEPIHWEVVRKIIEKERPDAVLPTMGGQTALNCALELERQGVLEEFGVTMIGATADAIDKAEDRRRFDVAMKKIGLETARSGIAHTMEEALAVAADVGFPCIIRPSFTMGGSGGGIAYNREEFEEICARGLDLSPTKELLIDESLIGWKEYEMEVVRDKNDNCIIVCSIENFDAMGIHTGDSITVAPAQTLTDKEYQIMRNASMAVLREIGVETGGSNVQFAVNPKNGRLIVIEMNPRVSRSSALASKATGFPIAKVAAKLAVGYTLDELMNDITGGRTPASFEPSIDYVVTKIPRFNFEKFAGANDRLTTQMKSVGEVMAIGRTQQESLQKALRGLEVGATGFDPKVSLDDPEALTKIRRELKDAGADRIWYIADAFRAGLSVDGVFNLTNIDRWFLVQIEELVRLEEKVAEVGITGLNADFLRQLKRKGFADARLAKLAGVREAEIRKLRDQYDLHPVYKRVDTCAAEFATDTAYMYSTYEEECEANPSTDREKIMVLGGGPNRIGQGIEFDYCCVHASLALREDGYETIMVNCNPETVSTDYDTSDRLYFEPVTLEDVLEIVRIEKPKGVIVQYGGQTPLKLARALEAAGVPVIGTSPDAIDRAEDRERFQHAVERLKLKQPANATVTAIEMAVEKAKEIGYPLVVRPSYVLGGRAMEIVYDEADLRRYFQTAVSVSNDAPVLLDHFLDDAVEVDVDAICDGEMVLIGGIMEHIEQAGVHSGDSACSLPAYTLSQEIQDVMRQQVQKLAFELQVRGLMNVQFAVKNNEVYLIEVNPRAARTVPFVSKATGVPLAKVAARVMAGKSLAEQGVTKEVIPPYYSVKEVVLPFNKFPGVDPLLGPEMRSTGEVMGVGRTFAEAFAKAQLGSNSTMKKHGRALLSVREGDKERVVDLAAKLLKQGFELDATHGTAIVLGEAGINPRLVNKVHEGRPHIQDRIKNGEYTYIINTTSGRRAIEDSRVIRRSALQYKVHYDTTLNGGFATAMALNADATEKVISVQEMHAQIK",Effect on CPS or CPSII,[3]; effect on GATase-CPS coupling,Uncouples GATase & CPS
"E. c. E761A: E. coli CPS with K-loop mutation E761A (protein, UniProt P0A6F1 1-382; P00968 2-1073, looked up, variant E761A, mutation in large subunit) Carbamoyl phosphate synthase … 1: MIKSALLVLEDGTQFHGRAIGATGSAVGEVVFNTSMTGYQEILTDPSYSRQIVTLTYPHIGNVGTNDADEESSQVHAQGLVIRDLPLIASNFRNTEDLSSYLKRHNIVAIADIDTRKLTRLLREKGAQNGCIIAGDNPDAALALEKARAFPGLNGMDLAKEVTTAEAYSWTQGSWTLTGGLPEAKKEDELPFHVVAYDFGAKRNILRMLVDRGCRLTIVPAQTSAEDVLKMNPDGIFLSNGPGDPAPCDYAITAIQKFLETDIPVFGICLGHQLLALASGAKTVKMKFGHHGGNHPVKDVEKNVVMITAQNHGFAVDEATLPANLRVTHKSLFDGTLQGIHRTDKPAFSFQGHPEASPGPHDAAPLFDHFIELIEQYRKTAK Carbamoyl phosphate synthase … 2: PKRTDIKSILILGAGPIVIGQACEFDYSGAQACKALREEGYRVILVNSNPATIMTDPEMADATYIEPIHWEVVRKIIEKERPDAVLPTMGGQTALNCALELERQGVLEEFGVTMIGATADAIDKAEDRRRFDVAMKKIGLETARSGIAHTMEEALAVAADVGFPCIIRPSFTMGGSGGGIAYNREEFEEICARGLDLSPTKELLIDESLIGWKEYEMEVVRDKNDNCIIVCSIENFDAMGIHTGDSITVAPAQTLTDKEYQIMRNASMAVLREIGVETGGSNVQFAVNPKNGRLIVIEMNPRVSRSSALASKATGFPIAKVAAKLAVGYTLDELMNDITGGRTPASFEPSIDYVVTKIPRFNFEKFAGANDRLTTQMKSVGEVMAIGRTQQESLQKALRGLEVGATGFDPKVSLDDPEALTKIRRELKDAGADRIWYIADAFRAGLSVDGVFNLTNIDRWFLVQIEELVRLEEKVAEVGITGLNADFLRQLKRKGFADARLAKLAGVREAEIRKLRDQYDLHPVYKRVDTCAAEFATDTAYMYSTYEEECEANPSTDREKIMVLGGGPNRIGQGIEFDYCCVHASLALREDGYETIMVNCNPETVSTDYDTSDRLYFEPVTLEDVLEIVRIEKPKGVIVQYGGQTPLKLARALEAAGVPVIGTSPDAIDRAEDRERFQHAVERLKLKQPANATVTAIEMAVEKAKEIGYPLVVRPSYVLGGRAMEIVYDEADLRRYFQTAVSVSNDAPVLLDHFLDDAVAVDVDAICDGEMVLIGGIMEHIEQAGVHSGDSACSLPAYTLSQEIQDVMRQQVQKLAFELQVRGLMNVQFAVKNNEVYLIEVNPRAARTVPFVSKATGVPLAKVAARVMAGKSLAEQGVTKEVIPPYYSVKEVVLPFNKFPGVDPLLGPEMRSTGEVMGVGRTFAEAFAKAQLGSNSTMKKHGRALLSVREGDKERVVDLAAKLLKQGFELDATHGTAIVLGEAGINPRLVNKVHEGRPHIQDRIKNGEYTYIINTTSGRRAIEDSRVIRRSALQYKVHYDTTLNGGFATAMALNADATEKVISVQEMHAQIK",Effect on CPS or CPSII,[3]; effect on UMP repression,Abolishes UMP repression
same,Effect on CPS or CPSII,[3]; effect on ornithine activation,Abolishes ornithine activation
